Experimental data as given in article PMC2860808 (Biochemical Journal, 2010).

T1: SPP–myc (signal peptide peptidase, myc-tagged) (human), Q8TCT9
T1 chain: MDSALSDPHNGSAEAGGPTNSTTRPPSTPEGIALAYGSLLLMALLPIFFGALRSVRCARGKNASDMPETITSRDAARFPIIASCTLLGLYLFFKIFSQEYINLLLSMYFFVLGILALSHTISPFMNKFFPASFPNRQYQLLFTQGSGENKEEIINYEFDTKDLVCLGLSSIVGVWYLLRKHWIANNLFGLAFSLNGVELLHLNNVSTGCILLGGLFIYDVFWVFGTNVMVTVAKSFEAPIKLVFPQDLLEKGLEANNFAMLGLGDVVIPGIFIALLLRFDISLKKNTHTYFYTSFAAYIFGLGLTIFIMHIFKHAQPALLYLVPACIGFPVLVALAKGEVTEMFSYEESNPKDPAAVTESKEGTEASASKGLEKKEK


Legend:
[1] = target: T1, SPP–myc (signal peptide peptidase, …); test: SDS/PAGE; details: remark: other sources report otherwise
native gel or EMSA = target: the molecule itself; test: native gel or EMSA

Row | Binder | stoichiometry N [1] | stoichiometry N (native gel or EMSA)
1 | SPP–myc (signal peptide peptidase, myc-tagged), Q8TCT9 1-377 (enzyme) MDSALSDPHNGSAEAGGPTNSTTRPPSTPEGIALAYGSLLLMALLPIFFGALRSVRCARGKNASDMPETITSRDAARFPIIASCTLLGLYLFFKIFSQEYINLLLSMYFFVLGILALSHTISPFMNKFFPASFPNRQYQLLFTQGSGENKEEIINYEFDTKDLVCLGLSSIVGVWYLLRKHWIANNLFGLAFSLNGVELLHLNNVSTGCILLGGLFIYDVFWVFGTNVMVTVAKSFEAPIKLVFPQDLLEKGLEANNFAMLGLGDVVIPGIFIALLLRFDISLKKNTHTYFYTSFAAYIFGLGLTIFIMHIFKHAQPALLYLVPACIGFPVLVALAKGEVTEMFSYEESNPKDPAAVTESKEGTEASASKGLEKKEK | 2 | –
2 | SPP^D/A–myc (SPP-D265A, catalytically inactive, myc-tagged) (enzyme) MDSALSDPHNGSAEAGGPTNSTTRPPSTPEGIALAYGSLLLMALLPIFFGALRSVRCARGKNASDMPETITSRDAARFPIIASCTLLGLYLFFKIFSQEYINLLLSMYFFVLGILALSHTISPFMNKFFPASFPNRQYQLLFTQGSGENKEEIINYEFDTKDLVCLGLSSIVGVWYLLRKHWIANNLFGLAFSLNGVELLHLNNVSTGCILLGGLFIYDVFWVFGTNVMVTVAKSFEAPIKLVFPQDLLEKGLEANNFAMLGLGAVVIPGIFIALLLRFDISLKKNTHTYFYTSFAAYIFGLGLTIFIMHIFKHAQPALLYLVPACIGFPVLVALAKGEVTEMFSYEESNPKDPAAVTESKEGTEASASKGLEKKEK | – | 2
